The values that follow come from patent US20240092879A1.

In assay [1] the target is Centruroides sculpturatus whole venom (toxic components CsEM1a and CsEd, ~10% of the venom). In words: cell-based or functional assay.
Assay [2] addresses CsEM1a toxin from Centruroides sculpturatus venom (Centruroides sculpturatus). In words: SPR (Biacore X), toxin on CM5 chip, scFv injected, 25 C, Langmuir 1:1. In general terms: SPR reads the build-up and loss of mass on a sensor chip optically.
Assay [3] concerns the target CsEd toxin from Centruroides sculpturatus venom (Centruroides sculpturatus). Described as above.

Sequence of scFv 10FG2 (SEQ. ID. NO: 1) (scFv): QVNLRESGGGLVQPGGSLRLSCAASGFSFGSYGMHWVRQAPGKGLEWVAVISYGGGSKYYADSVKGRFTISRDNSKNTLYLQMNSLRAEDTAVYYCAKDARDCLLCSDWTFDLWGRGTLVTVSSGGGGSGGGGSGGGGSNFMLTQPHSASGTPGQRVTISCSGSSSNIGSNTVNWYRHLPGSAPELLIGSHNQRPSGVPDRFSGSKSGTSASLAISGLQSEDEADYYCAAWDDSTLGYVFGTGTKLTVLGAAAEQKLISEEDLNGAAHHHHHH
Sequence of CsEM1a toxin from Centruroides sculpturatus venom (Centruroides sculpturatus) (P56646 whole entry): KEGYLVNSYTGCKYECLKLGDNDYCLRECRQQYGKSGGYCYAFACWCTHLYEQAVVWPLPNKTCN

As a reminder, the Kd is a measure of binding affinity in units of concentration. A lower Kd goes with tighter binding. As a reminder, the koff is the first-order rate constant of dissociation. As a reminder, the kon is a measure of how fast the partners come together. High values mean fast association, low ones slow association. Regarding scFv 10FG2 (SEQ. ID. NO: 1), in assay [1], the Survivors/Total, mixing test, 2 LD50, molar ratio toxin:scFv 1:5 (survivors of 6 mice) turned out to be 6; the Survivors/Total, mixing test, 3 LD50, molar ratio toxin:scFv 1:3.3 (survivors of 6 mice) turned out to be 6; the Survivors/Total, mixing test, 4 LD50, molar ratio toxin:scFv 1:2.5 (survivors of 6 mice) came to 6; the Survivors/Total, mixing test, 5 LD50, molar ratio toxin:scFv 1:2 (survivors of 6 mice) was found to be 6. Also, in assay [1], the Survivors/total, mice injected with venom premixed with scFv, 2 LD50, molar ratio toxin:scFv 1:10 (survivors of 6 mice) was determined as 6. In assay [2], the Kd came to 1.1 nM; the TR (min), residence time came to 63 min; the koff is 0.000261 s⁻¹; the kon is 237000 M⁻¹ s⁻¹. In assay [3], the equilibrium dissociation constant (Kd) was 1.84 nM; the TR (min), residence time worked out at 49 min; the koff was 0.00034 s⁻¹; the kon was found to be 185000 M⁻¹ s⁻¹.
